Data published in patent US20240018254A1.

Target: FcγRIIIa-bio (UniProt P08637)
Test: BLI (Fortebio), FcγRIIIa-bio on SA sensor, antibody 31.3-500 nM, 1:1 fit

Chain of UniProt P08637 (P08637 17-208 limits assumed): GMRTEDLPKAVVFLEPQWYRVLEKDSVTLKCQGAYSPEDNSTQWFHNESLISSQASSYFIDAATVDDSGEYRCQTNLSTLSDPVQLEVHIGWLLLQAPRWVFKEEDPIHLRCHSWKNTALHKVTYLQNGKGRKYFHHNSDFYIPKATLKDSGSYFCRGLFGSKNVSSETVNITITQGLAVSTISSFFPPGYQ

For MEDI9447 (Oleclumab) (antibody), the Kd was 0.141 µM, the koff was 0.0342 s⁻¹ and the kon was 243000 M⁻¹ s⁻¹.
